Reference: patent US20120316071A1 (published 2012)
Changes are numbered by the printed parent chain. Names and notes keep the numbering of the source.

B1: Fab VH1-46_IGHD6-6*01_IGHJ1*01 S102A/S103P/S104F/H111F F29A & L6_IGKJ1*01 (Fab, V domains shown)
VH: QVQLVQSGAEVKKPGASVKVSCKASGYTATSYYMHWVRQAPGQGLEWMGIINPSGGSTSYAQKFQGRVTMTRDTSTSTVYMELSSLRSEDTAVYYCAREEYAPFSAEYFQFWGQGTLVTVSS
VL: not shown
notes: Tested as a Fab made in E. coli; The heavy chain vector (Plasmid A) adds CH1 with His6 and Flag tags; The light chain vector (Plasmid C) adds kappa CL; also called APFF F29A
B2: Fab VH1-46_IGHD6-6*01_IGHJ1*01 S102A/S103P/S104F/H111F/N52L/S54T/G56H (APFF LTH) & L6_IGKJ1*01 (Fab, V domains shown)
VH: B1 VH with A29F, N52L, S54T, G56H
VL: not shown
notes: Tested as a Fab made in E. coli: VH cloned into Plasmid A (CH1, His6 and Flag tags), kappa VL into Plasmid C (kappa CL); also called H:APFF LTH & L:wt
B3: Fab VH1-46_IGHD6-6*01_IGHJ1*01 S102A/S103P/S104F/H111F/I51E/N52L/S54T/G56H (APFF ELTH) & L6_IGKJ1*01 (Fab, V domains shown)
VH: B1 VH with A29F, I51E, N52L, S54T, G56H
VL: not shown
notes: Tested as a Fab made in E. coli: VH in Plasmid A (CH1, His6 and Flag tags), kappa VL in Plasmid C (kappa CL)
B4: Fab VH1-46_IGHD6-6*01_IGHJ1*01 S102A/S103P/S104F/H111F/I51T/N52L/P53A/S54T/G56H (APFF TLATH) & L6_IGKJ1*01 (Fab, V domains shown)
VH: B1 VH with A29F, I51T, N52L, P53A, S54T, G56H
VL: not shown
notes: as for B3
B5: Fab VH1-46_IGHD6-6*01_IGHJ1*01 S102A/S103P/S104F/H111F/I51N/N52L/S54T/G56H (APFF NLTH) & L6_IGKJ1*01 (Fab, V domains shown)
VH: B1 VH with A29F, I51N, N52L, S54T, G56H
VL: not shown
notes: as for B3
B6: Fab VH1-46_IGHD6-6*01_IGHJ1*01 S102A/S103P/S104F/H111F I51T/N52V (APFF I51T/N52V) & L6_IGKJ1*01 (Fab, V domains shown)
VH: B1 VH with A29F, I51T, N52V
VL: not shown
notes: as for B3
B7: Fab VH1-46_IGHD6-6*01_IGHJ1*01 S102A/S103P/S104F/H111F/I51V/N52L/S54T/G56H (APFF VLTH) & L6_IGKJ1*01 (Fab, V domains shown)
VH: B1 VH with A29F, I51V, N52L, S54T, G56H
VL: not shown
notes: Tested as a Fab made in E. coli: VH in Plasmid A (CH1, His6 and Flag tags), kappa VL in Plasmid C (kappa CL); also called APPF VLTH
B8: Fab VH1-46_IGHD6-6*01_IGHJ1*01 S102A/S103P/S104F/H111F I51E/N52L/S54T/G56H & L6_IGKJ1*01 (Fab, V domains shown)
VH: B1 VH with A29F, I51E, N52L, S54T, G56H
VL: not shown
notes: Fab; also called APFF ELTH
B9: Fab VH1-46_IGHD6-6*01_IGHJ1*01 S102A/S103P/S104F/H111F I51N/N52L/S54T/G56H & L6_IGKJ1*01 (Fab, V domains shown)
VH: B1 VH with A29F, I51N, N52L, S54T, G56H
VL: not shown
notes: Fab; also called APFF NLTH
B10: Fab VH1-46_IGHD6-6*01_IGHJ1*01 S102A/S103P/S104F/H111F (APFF) & L6_IGKJ1*01 W94T (Fab, V domains shown)
VH: B1 VH with A29F
VL: EIVLTQSPATLSLSPGERATLSCRASQSVSSYLAWYQQKPGQAPRLLIYDASNRATGIPARFSGSGSGTDFTLTISSLEPEDFAVYYCQQRSNTPPWTFGQGTKVEIKR
notes: Fab from E. coli; VH in Plasmid A (CH1, His6 and Flag tags), VL in Plasmid C (kappa CL); also called APFF & W94T

molecular target: T1, Recombinant Human DLL4 (R&D Systems Cat#1506-D4/CF) (human, UniProt Q9NR61 27-524); experiment: ECL multispot (MSD) binding assay; antigen spotted on plate, Fab in solution, Ru-labelled anti-kappa detection;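 also: purified Fab in 1% BSA TBST incubated 1 h at 20 °C with shaking, signal compared with each well's blank, signal/blank ratio of 4 or above counted as binder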
T1 construct: Bought from R&D Systems; also called delta-like protein 4; rHuman DLL4

Row | ECL signal | Binder
1 | 109000 | B1

molecular target: T2, rHuman HGF R/c-MET/Fc Chimera, CF (R&D Systems Cat#358-MT/CF) (human, UniProt P08581 25-932); experiment: as above
T2 construct: Bought from R&D Systems; also called HGF R/Fc; hepatocyte growth factor receptor; Fc part of the bought chimera not given
T2 sequence (P08581 25-932, change not shown): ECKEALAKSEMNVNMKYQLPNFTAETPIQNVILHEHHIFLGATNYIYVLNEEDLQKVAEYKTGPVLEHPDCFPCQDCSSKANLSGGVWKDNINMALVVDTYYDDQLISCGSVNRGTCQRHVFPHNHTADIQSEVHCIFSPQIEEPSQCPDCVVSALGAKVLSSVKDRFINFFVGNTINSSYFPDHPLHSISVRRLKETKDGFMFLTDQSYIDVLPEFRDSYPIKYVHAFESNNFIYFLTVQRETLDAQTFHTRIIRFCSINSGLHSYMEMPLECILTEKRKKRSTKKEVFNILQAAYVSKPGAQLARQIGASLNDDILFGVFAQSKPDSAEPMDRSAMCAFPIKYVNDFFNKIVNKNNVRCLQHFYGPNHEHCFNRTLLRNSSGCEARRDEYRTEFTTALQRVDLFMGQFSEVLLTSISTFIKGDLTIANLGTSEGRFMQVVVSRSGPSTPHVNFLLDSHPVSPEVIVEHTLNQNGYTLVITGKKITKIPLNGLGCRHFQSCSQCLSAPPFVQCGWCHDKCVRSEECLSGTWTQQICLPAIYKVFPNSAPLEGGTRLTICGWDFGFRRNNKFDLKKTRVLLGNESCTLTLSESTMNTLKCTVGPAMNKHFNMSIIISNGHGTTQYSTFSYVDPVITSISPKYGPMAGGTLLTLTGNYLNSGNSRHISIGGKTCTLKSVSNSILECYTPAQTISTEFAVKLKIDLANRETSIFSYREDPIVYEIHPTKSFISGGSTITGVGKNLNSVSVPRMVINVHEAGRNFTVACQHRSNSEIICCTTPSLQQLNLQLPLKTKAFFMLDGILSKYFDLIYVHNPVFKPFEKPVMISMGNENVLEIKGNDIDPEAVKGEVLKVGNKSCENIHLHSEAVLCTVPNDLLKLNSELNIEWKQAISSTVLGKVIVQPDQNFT

Row | ECL signal | Binder
2 | 512 | B1

molecular target: T3, rHuman EGF R/Fc Chimera, CF (R&D Systems Cat#344-ER) (human, UniProt P00533 25-645); experiment: as above
T3 construct: Bought from R&D Systems; also called epidermal growth factor receptor; Fc part of the bought chimera not given

Row | ECL signal | Binder
3 | 537 | B1

molecular target: T4, rHuman P-Cadherin/Fc Chimera, CF (R&D Systems Cat#861-PC) (human, UniProt P22223 108-654); experiment: as above
T4 construct: Bought from R&D Systems; Fc part of the bought chimera not given

Row | ECL signal | Binder
4 | 508 | B1

molecular target: T5, rHuman IGF-1 sR, CF (R&D Systems Cat#391-GR) (human, UniProt P08069 31-932); experiment: as above
T5 construct: Bought from R&D Systems as a soluble receptor; also called insulin-like growth factor-1 soluble receptor

Row | ECL signal | Binder
5 | 439 | B1

molecular target: T6, Recombinant Human DLL4 (delta-like protein 4) (human, UniProt Q9NR61 27-524); experiment: ELISA, DLL4 coated on plate, Fab at 5 nM, absorbance at 450 nm
T6 construct: Bought recombinant protein (R&D Systems Cat#1506-D4/CF) coated on the ELISA plate; also called rHuman DLL4; Delta-like 4

Row | ELISA signal | Binder
6 | 2.48 | B2
7 | 2.33 | B3
8 | 1.27 | B4
9 | 1.75 | B5
10 | 0.724 | B6
11 | 2.2 | B7

molecular target: T7, Recombinant Human DLL4 (R&D Systems Cat#1506-D4/CF) (human, UniProt Q9NR61 27-524); experiment: ELISA titration, 2-fold dilutions from 20 nM Fab
T7 construct: bought recombinant protein; also called rHuman DLL4; delta-like protein 4

Row | Kd | Binder
12 | 1 to 10 nM | B8
13 | 1 to 10 nM | B9

molecular target: T6, Recombinant Human DLL4 (delta-like …); experiment: ELISA, DLL4 coated on plate, Fab at 0.16 nM, absorbance at 450 nm

Row | ELISA signal | Binder
14 | 2.35 | B2
15 | 2.17 | B3
16 | 0.875 | B4
17 | 1.36 | B5
18 | 0.506 | B6
19 | 1.85 | B7

molecular target: T6, Recombinant Human DLL4 (delta-like …); experiment: ELISA, DLL4 coated on plate, Fab at 0.63 nM, absorbance at 450 nm

Row | ELISA signal | Binder
20 | 1.37 | B2
21 | 1.01 | B3
22 | 0.227 | B4
23 | 0.419 | B5
24 | 0.115 | B6
25 | 0.785 | B7

molecular target: T6, Recombinant Human DLL4 (delta-like …); experiment: ELISA, DLL4 coated on plate, Fab at 10 nM, absorbance at 450 nm

Row | ELISA signal | Binder
26 | 2.35 | B2
27 | 2.17 | B3
28 | 0.875 | B4
29 | 1.36 | B5
30 | 0.506 | B6
31 | 1.85 | B7

molecular target: T6, Recombinant Human DLL4 (delta-like …); experiment: ELISA, DLL4 coated on plate, Fab at 20 nM, absorbance at 450 nm

Row | ELISA signal | Binder
32 | 2.4 | B2
33 | 2.29 | B3
34 | 1.11 | B4
35 | 1.63 | B5
36 | 0.648 | B6
37 | 2.05 | B7

molecular target: T8, Recombinant Human DLL4 (human, UniProt Q9NR61 27-524); experiment: ECL (MSD) multispot binding assay, DLL4 spotted on plate, Fab in solution
T8 construct: also called delta-like protein 4; rHuman DLL4

Row | ECL signal | Binder
38 | 23200 | B10

molecular target: T6, Recombinant Human DLL4 (delta-like …); experiment: ELISA, DLL4 coated on plate, Fab at 1.3 nM, absorbance at 450 nm

Row | ELISA signal | Binder
39 | 0.653 | B2
40 | 0.402 | B3
41 | 0.078 | B4
42 | 0.143 | B5
43 | 0.055 | B6
44 | 0.252 | B7

molecular target: T6, Recombinant Human DLL4 (delta-like …); experiment: ELISA, DLL4 coated on plate, Fab at 0.31 nM, absorbance at 450 nm

Row | ELISA signal | Binder
45 | 2.4 | B2
46 | 2.29 | B3
47 | 1.11 | B4
48 | 1.63 | B5
49 | 0.648 | B6
50 | 2.05 | B7

molecular target: T6, Recombinant Human DLL4 (delta-like …); experiment: ELISA, DLL4 coated on plate, Fab at 2.5 nM, absorbance at 450 nm

Row | ELISA signal | Binder
51 | 2.15 | B2
52 | 1.98 | B3
53 | 0.592 | B4
54 | 1.17 | B5
55 | 0.358 | B6
56 | 1.66 | B7
